Source: US7074595B2, “General means of labeling protein by using wheat embryo cell-free protein synthesis system” (CellFree Sciences Co., Ltd., priority 2000, dated 2006)

Tests used:
Type in all cases: biochemical
[1] = substrate: NC(=O)C1=CN([C@@H]2O[C@H](COP(=O)(O)OP(=O)(O)OC[C@H]3O[C@@H](n4cnc5c(N)ncnc54)[C@H](OP(=O)(O)O)[C@@H]3O)[C@@H](O)[C@H]2O)C=CC1; experiment: enzymatic properties of DHFR (Table 1): Michaelis constant and maximum velocity, Met-DHFR; details: other: Met-DHFR
Experimental: (§1) Purification of GFP and measurement of its activity by analysis of fluorescence spectrum using a fluorospectrophotometer were carried out in accordance with a method by Deschamps, et al. [Deschamps, J. R. et al., (1995) Protein Expression and Purification, 6, 555–558]. In the measurement of fluorescence spectrum, a fluorophotometer of type RF-5000 by Shimadzu was used. DHFR activity was measured by a method of Stanley, et al. [Methods. Enzymol. 18, 195–199 (1971)].
(§2) Then enzymatic properties of the selenomethionine-containing proteins purified as such were investigated biochemically. Fluorescence emission spectrum of a certain concentration of the purified GFP preparation shown in FIG. 2 excited at the wavelength of 395 nm was measured within a range of 410 nm to 600 nm and the result is shown in FIG. 3. As will be apparent from FIG. 3, there is no difference between the fluorescence emission spectra of GFP [(A) in FIG. 3] and selenomethionine GFP [(B) in FIG. 3]. Thus, the conclusion is that the change in GFP activity by substituting methionine residue with selenomethionine is not higher than the usual measurement sensitivity. […]

[2] = substrate: NC(=O)C1=CN([C@@H]2O[C@H](COP(=O)(O)OP(=O)(O)OC[C@H]3O[C@@H](n4cnc5c(N)ncnc54)[C@H](OP(=O)(O)O)[C@@H]3O)[C@@H](O)[C@H]2O)C=CC1; experiment: enzymatic properties of DHFR (Table 1): Michaelis constant and maximum velocity, SeMet-DHFR; details: other: SeMet-DHFR
Experimental: as §1, §2

[3] = substrate: NC(=O)C1=CN([C@@H]2O[C@H](COP(=O)(O)OP(=O)(O)OC[C@H]3O[C@@H](n4cnc5c(N)ncnc54)[C@H](OP(=O)(O)O)[C@@H]3O)[C@@H](O)[C@H]2O)C=CC1; experiment: enzymatic properties of DHFR (Table 2): Michaelis constant and maximum velocity, Heavy Hydrogen-Labeled DHFR; details: other: Heavy Hydrogen-Labeled DHFR
Experimental: as §1
With regard to the wheat embryo, that being contaminated with substantially no endosperm component prepared by the method mentioned in Example 1 was used. Preparation of an extract from wheat embryo was carried out by the exactly same method as Example 1 except that the solution for extraction and the solution used for gel filtration contained 20 kinds of heavy hydrogen-labeled L-amino acids instead of 20 kinds of selenomethionine-containing L-amino acids. Concentration of the prepared extract was adjusted to 170˜250 A260 nm (A260/A280=1.5).
Although the composition of the protein synthesis reaction solution is as same as that described in Example 1, it contains 20 kinds of heavy hydrogen-labeled L-amino acids instead of 20 kinds of selenomethionine-containing L-amino acids.
Then enzymatic properties of the purified heavy hydrogen-labeled DHFR were biochemically investigated by the same manner as in Example 1. […]

[4] = substrate: NC(=O)C1=CN([C@@H]2O[C@H](COP(=O)(O)OP(=O)(O)OC[C@H]3O[C@@H](n4cnc5c(N)ncnc54)[C@H](OP(=O)(O)O)[C@@H]3O)[C@@H](O)[C@H]2O)C=CC1; experiment: enzymatic properties of DHFR (Table 2): Michaelis constant and maximum velocity, Natural-Type DHFR; details: other: Natural-Type DHFR
Experimental: as §1
Then enzymatic properties of the purified heavy hydrogen-labeled DHFR were biochemically investigated by the same manner as in Example 1. As will be apparent from Table 2, both Vmax and Michaelis constant (Km) to NADPH which are parameters for enzymatic chemical property of natural-type DHFR and heavy hydrogen-labeled DHFR show no difference between both enzymes. Thus, it became clear that DHFR comprising heavy hydrogen-labeled amino acids maintained nearly the same enzymatic activity as the natural-type DHFR.

B1: dihydrofolate reductase (DHFR), natural-type methionine-containing (Met-DHFR) (Escherichia coli K-12) (protein)
chain: MISLIAALAVDRVIGMENAMPWNLPADLAWFKRNTLNKPVIMGRHTWESIGRPLPGRKNIILSSQPGTDDRVTWVKSVDEAIAACGDVPEIMVIGGGRVYEQFLPKAQKLYLTHIDAEVEGDTHFPDYEPDDWESVFSEFHDADAQNSHSYCFEILERR
notes: made in house; host or cells: wheat embryo extract cell-free protein synthesis (dialysis type)
B1 gave a Km [1] of 11.2 µM.

B2: dihydrofolate reductase (DHFR), selenomethionine-containing (SeMet-DHFR) (Escherichia coli K-12) (protein)
chain: B1 chain
notes: as for B1
B2 gave a Km [2] of 10.2 µM.

B3: dihydrofolate reductase (DHFR), Heavy Hydrogen-Labeled DHFR (20 kinds of heavy hydrogen-labeled L-amino acids) (Escherichia coli K-12) (protein)
chain: B1 chain
notes: as for B1
B3 was tested, and the Km [3] was 14.7 µM.

B4: dihydrofolate reductase (DHFR), Natural-Type DHFR (Escherichia coli K-12) (protein)
chain: B1 chain
notes: as for B1
Work on B4 yielded a Km [4] of 13.2 µM.
